Assay [1] addresses recombinant purified αM integrin subunit (UniProt P11215). The experiment in a line: ELISA.
Assay [2] addresses recombinant purified integrin αMβ2 (UniProt P11215). The experiment in a line: ELISA. (In an ELISA, binding on a coated surface is turned into a signal by an enzyme label.)
In assay [3] the target is recombinant purified β2 integrin subunit (UniProt P05107). The experiment in a line: ELISA.
Another assay has as its target αM/αLβ2 chimera (UniProt P05107). The experiment in a line: flow cytometry on cells. On the technique in general: In flow cytometry, cells or beads pass a laser one at a time.
The next assay addresses αM(1119Δ)β2 (UniProt P11215). The experiment in a line: flow cytometry on cells.
The target in assay [4] is wild-type αMβ2 on transfected K562 cells (UniProt P11215). The experiment in a line: flow cytometry on cells.
The next assay concerns the target αMβ2(728Δ) (UniProt P11215). The experiment in a line: flow cytometry on cells.
The target of assay [5] is integrin αMβ2 on human PMNs (human (endogenous in PMNs)) (UniProt P11215).

For orientation: Kd means the free concentration of one partner at which half of the binding sites on the other are occupied at equilibrium, for simple one-to-one binding.

Sequence of Ang(1–4), angiostatin composed of four kringle domains of Plg (P00747 20-810): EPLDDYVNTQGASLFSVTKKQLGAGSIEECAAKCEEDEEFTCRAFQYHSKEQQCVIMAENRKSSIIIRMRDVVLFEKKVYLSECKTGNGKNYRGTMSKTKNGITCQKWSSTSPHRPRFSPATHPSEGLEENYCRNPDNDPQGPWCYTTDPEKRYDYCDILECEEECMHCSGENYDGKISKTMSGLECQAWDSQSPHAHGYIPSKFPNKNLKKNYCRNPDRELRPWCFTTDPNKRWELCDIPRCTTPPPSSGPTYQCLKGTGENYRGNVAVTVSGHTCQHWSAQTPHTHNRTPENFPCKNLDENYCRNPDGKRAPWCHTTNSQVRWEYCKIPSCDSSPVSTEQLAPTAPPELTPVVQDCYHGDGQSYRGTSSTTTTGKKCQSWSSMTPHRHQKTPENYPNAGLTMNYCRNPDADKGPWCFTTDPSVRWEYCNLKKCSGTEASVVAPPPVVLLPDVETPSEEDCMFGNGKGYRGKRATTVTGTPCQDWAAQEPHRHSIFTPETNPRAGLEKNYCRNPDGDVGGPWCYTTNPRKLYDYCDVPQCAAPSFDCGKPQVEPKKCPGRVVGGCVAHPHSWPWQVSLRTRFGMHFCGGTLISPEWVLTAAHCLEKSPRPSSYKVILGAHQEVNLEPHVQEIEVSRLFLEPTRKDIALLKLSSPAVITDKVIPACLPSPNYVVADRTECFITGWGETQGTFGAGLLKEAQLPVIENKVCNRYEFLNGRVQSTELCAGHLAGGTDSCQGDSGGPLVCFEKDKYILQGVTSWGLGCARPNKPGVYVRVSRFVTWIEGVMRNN

For the substance “Ang(1–4), angiostatin composed of four kringle domains of Plg (from UniProt P00747 20-810) (domain or fragment)”, the dissociation constant (Kd) is 400 nM in assay [1], 500 nM in assay [2] and > 100000 nM in assay [3].

Regarding plasminogen (Glutamic Plg) (ligand), the MFI of bound ligand in the assay with αM/αLβ2 chimera stood at 135 MFI; with αM(1119Δ)β2, 145 MFI; in assay [4] it was 130 MFI; with αMβ2(728Δ), 152 MFI. In addition, the PMN early/late apoptosis (% annexin V+ cells), 16 h, Plg 1 μM with NIF (50 nM) in assay [5] came out at 90%. In addition, the Kd in assay [1] was 100 nM; in assay [3], 500 nM.

For the substance “human fibrinogen (from UniProt P02671-2 20-644; P02675 31-491; P02679-2 27-437) (complex)”, in the assay with αM/αLβ2 chimera, the MFI of bound ligand came to 129 MFI.

For the origin of these results see article PMC2978023.
